Residue numbers refer to the chain shown, from its start.
B1: mAbA4: 5T4 antibody comprising VH of SEQ ID NO:25 and VL of SEQ ID NO:26 (antibody, V domains shown)
VH: EVQLVESGGGLVQPGGSLRLSCAASGFTFSRYYIHWVRQAPGKGLEWVAFISPGGSYTYYADSVKGRFTISADTSKNTAYLQMNSLRAEDTAVYYCAREYYSMGVLDYWGQGTLVTVSS
VL: DIQMTQSPSSLSASVGDRVTITCRASQSVSSAVAWYQQKPGKAPKLLIYSASSLYSGVPSRFSGSRSGTDFTLTISSLQPEDFATYYCQQAYESPYTFGQGTKVEIK
modifications: Antibody mAbA4 VH Sequence; Antibody mAbA4 VL Sequence
B2: mAbA15: 5T4 antibody comprising VH of SEQ ID NO:44 and VL of SEQ ID NO:45 (antibody, V domains shown)
VH: EVQLVESGGGLVQPGGSLRLSCAASGFTFSSYYIHWVRQAPGKGLEWVAYITSTGSYTEYADSVKGRFTISADTSKNTAYLQMNSLRAEDTAVYYCARYDRSTRYSGLDYWGQGTLVTVSS
VL: B1 VL with E93A, S94T, Y96V
modifications: Antibody mAbA15 VH Sequence; Antibody mAbA15 VL Sequence
B3: mAbA17 (antibody, V domains shown)
VH: EVQLVESGGGLVQPGGSLRLSCAASGFTFSRYWIHWVRQAPGKGLEWVAAIFPYSGSTLYADSVKGRFTISADTSKNTAYLQMNSLRAEDTAVYYCARSPSRSILPSGLDYWGQGTLVTVSS
VL: DIQMTQSPSSLSASVGDRVTITCRASQSVSSAVAWYQQKPGKAPKLLIYSASSLYSGVPSRFSGSRSGTDFTLTISSLQPEDFATYYCQQGDGSPYTFGQGTKVEIKR
notes: also called Antibody mAbA17
B4: mAbA15 (antibody, V domains shown)
VH: B2 VH
VL: B3 VL with G91A, D92Y, G93A, S94T, Y96V
notes: also called Antibody mAbA15
B5: mAbA4 (antibody, V domains shown)
VH: B1 VH
VL: B3 VL with G91A, D92Y, G93E
notes: also called Antibody mAbA4
B6: mAbA17: 5T4 antibody comprising VH of SEQ ID NO:62 and VL of SEQ ID NO:63 (antibody, V domains shown)
VH: B3 VH
VL: B1 VL with A91G, Y92D, E93G
modifications: Antibody mAbA17 VH Sequence; Antibody mAbA17 VL Sequence

Assays:
[1] = tested on: HEK-cyno-5T4 cells; assay: Cell binding (flow cytometry), HEK-cyno-5T4 cells; type: cell-based
Procedure: Antibodies that were selected for binding to 5T4, for example, such as those described in Example 2, were evaluated for binding to cells that express 5T4. Cells were harvested at 70-90% confluence on the day of the assay. In a v-bottom 96-well plate (Costar 3897), 100,000 cells per well were incubated with 50 μL per well 8- or 12-point antibody dilution series for 30 minutes at +4° C. After incubation, cells were washed once with PBS by centrifugation at 200×g for 5 minutes. Cells were then incubated with 50 μL per well of Alexa Fluor 488 Goat anti-human IgG Fab (Jackson Immuno Research 109-547-003) at 1:100 dilution for 30 minutes at +4° C. Cells were washed twice with PBS by centrifugation at 200×g for 5 minutes and were acquired on iQue Screener Plus (Sartorius). Mean fluorescence intensities of BL1 (Alexa-Fluor-488) channel were plotted against antibody concentrations to generate a dose response curve and EC50 values.

[2] = molecular target: T1, HEK293 and CHO cells transfected to express cyno 5T4 (Macaca fascicularis, UniProt Q4R8Y9); assay: Cell binding to transfected HEK293 and CHO cells, cyno 5T4; type: cell-based
T1 construct: expressed in transfected cells; host or cells: HEK293 and CHO
T1 sequence (Q4R8Y9 35-420): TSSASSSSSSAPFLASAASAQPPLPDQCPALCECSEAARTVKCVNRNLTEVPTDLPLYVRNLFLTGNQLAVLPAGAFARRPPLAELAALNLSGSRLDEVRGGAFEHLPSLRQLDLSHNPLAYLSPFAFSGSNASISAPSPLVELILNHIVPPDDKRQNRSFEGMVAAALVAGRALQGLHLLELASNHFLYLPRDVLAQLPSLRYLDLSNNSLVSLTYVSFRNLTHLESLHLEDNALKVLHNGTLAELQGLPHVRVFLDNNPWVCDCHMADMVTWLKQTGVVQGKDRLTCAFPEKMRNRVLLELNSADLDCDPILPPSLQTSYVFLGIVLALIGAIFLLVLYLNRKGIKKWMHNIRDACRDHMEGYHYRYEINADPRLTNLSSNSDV
Procedure: Unconjugated antibodies were tested for their ability to bind to HEK293 and CHO cells transfected to express human, cyno, rat, or mouse 5T4.

[3] = molecular target: T2, unconjugated human TPBG/5T4 protein with a c-terminal polyhistidine and Avi tag (AcroBiosystems Cat. No. … (human, UniProt Q13641 32-355)); assay: ELISA on coated human 5T4 His-Avi (Acro TPG-H52E5); antibody condition: pH 5.5 Day 1
T2 construct: Bought protein; also called Acro TPGH52E5; Acro Catalog No. TPGH52E; not shown: C-terminal polyhistidine and Avi tag
T2 sequence: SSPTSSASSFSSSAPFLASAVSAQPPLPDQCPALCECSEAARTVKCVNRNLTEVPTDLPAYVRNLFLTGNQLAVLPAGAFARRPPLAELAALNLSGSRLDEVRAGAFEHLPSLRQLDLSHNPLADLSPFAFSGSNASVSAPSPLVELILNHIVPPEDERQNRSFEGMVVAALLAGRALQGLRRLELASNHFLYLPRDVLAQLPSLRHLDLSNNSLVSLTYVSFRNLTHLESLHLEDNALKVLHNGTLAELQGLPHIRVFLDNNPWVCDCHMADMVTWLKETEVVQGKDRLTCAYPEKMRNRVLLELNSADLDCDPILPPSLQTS
Procedure: (§1) A. Normal Binding Unconjugated antibodies were tested for their ability to bind to human 5T4 (hu5T4) using ELISA. On Day 1, unconjugated human TPBG/5T4 protein with a c-terminal polyhistidine and Avi (AVITAG™) tag (AcroBiosystems (Newark, DE, USA), Cat. No. TPG-H52E5) was diluted 2 μg/mL in PBS, mixed thoroughly, plated 100 μL per well in a 96-well plate (Nunc MAXISORP®) and incubated overnight at 4° C.

[4] = molecular target: T2, unconjugated human TPBG/5T4 protein …; assay: ELISA on coated human 5T4 His-Avi (Acro TPG-H52E5); antibody condition: PBS + H2O2 time 48 hr.
Procedure: as §1
3. Oxidative Stress. Several unconjugated antibodies were tested for their ability to bind to 5T4 using ELISA in an oxidative environment. […]

[5] = molecular target: T2, unconjugated human TPBG/5T4 protein …; assay: ELISA on coated human 5T4 His-Avi (Acro TPG-H52E5); antibody condition: pH 8.5 Day 1
Procedure: as §1

[6] = molecular target: T2, unconjugated human TPBG/5T4 protein …; assay: ELISA on coated human 5T4 His-Avi (Acro TPG-H52E5); antibody condition: pH 5.5 Day 7
Procedure: as §1

[7] = molecular target: T3, human 5T4 produced internally (Lot 20-019-62) (human, UniProt Q13641 32-355); assay: Octet, antibody on AHC sensors, human 5T4 in solution (monovalent); Internal Lot 20-019-62
T3 construct: 'also produced separately'; also called Internal (Lot 20-019-62)
T3 sequence: T2 sequence
Procedure: (§2) Monovalent binding assays were employed to determine the relative affinity of each 5T4 binder obtained by the phage display in Example 1 to human 5T4. Human 5T4 was purchased from Acro Biosystems (Acro Catalog No. TPGH52E) and also produced separately. The monovalent interaction of binders to human 5T4 was monitored using an Octet (Pall ForteBio) instrument. For these assays, 36 nM antibody was immobilized on anti-human Fc (AHC) sensors in 1× kinetic buffer (ForteBio). The sensors were then dipped in wells containing a 3× serial dilution of human 5T4 ranging from 1 μM to 1.37 nM. The association was allowed to reach equilibrium. Sensors were then moved to wells containing only 1× kinetic buffer and allowed to dissociate to equilibrium. Association and dissociation rates were measured and from these, monovalent KDS were calculated using the onboard analysis software (ForteBio).

[8] = molecular target: T2, unconjugated human TPBG/5T4 protein …; assay: Octet, antibody on AHC sensors, human 5T4 in solution (monovalent); Acro TPGH52E5 Lot B465-87AF1-JP
Procedure: as §2

[9] = molecular target: T4, cynomolgus 5T4 on cells (HEK-cyno-5T4, transfected HEK293 and CHO cells) (cynomolgus monkey, UniProt Q4R8Y9 35-420); assay: flow cytometry on HEK-cyno-5T4 cells
T4 construct: also called HEK-cyno-5T4 cells
T4 sequence: T1 sequence (Q4R8Y9 35-420)

Molecule | binding to HEK-cyno-5T4 cells [1] | reactivity to cells transfected to express cyno 5T4 [2] | EC50 [3] [pM] | EC50 [4] [pM] | EC50 [5] [pM] | EC50 [6] [pM] | Kd [7] [pM] | Kd [8] [pM] | binding result [9]
B1 | binding | reactive |  |  |  |  |  |  | 
B2 | binding | reactive |  |  |  |  |  |  | 
B3 |  |  | 159 | 207 | 174 | 190 | 9340 | 21100 | 
B4 |  |  | 134 | 189 | 128 | 132 | 10400 | 11200 | binds
B5 |  |  | 132 | 386 | 127 | 124 | 83000 | 30200 | binds
B6 | binding | reactive |  |  |  |  |  |  | 

— patent US20250295803A1, “5T4 ANTIBODY-DRUG CONJUGATES AND USES THEREOF” (EXELIXIS, INC., priority 2022, published 2025)
